Reference: patent US20260250737A1, “Engineered Luciferases and Luciferin Substrates” (Monod Bio, Inc., priority 2023, published 2026)

Experiments:
Format in all cases: biochemical
[1] = system: construct containing Small Lux (SmLux), Large Lux (LgLux), FKBP and FRB; experiment: LuxSit split optimization: SmLux-LgLux-FKBP-FRB construct on the surface of yeast, rapamycin-induced signal; conditions: Table 19, LgLux variants, 50 uM substrate 1c; for Fold change upon Rap addition: 20 uM Rapamycin
Procedure: To optimize the function of the LuxSit Splits, a construct containing Small Lux (SmLux), Large Lux (LgLux) and the proteins that bind the molecule Rapamycin (FKBP and FRB), connected by GS linkers, was expressed on the surface of yeast. When 50 uM of substrate 1c is added to yeast expressing this construct, a baseline signal is observed due to SmLux and LgLux reconstitution. When 20 uM of Rapamycin is added, SmLux and LgLux are brought closer to each other by FKBP and FRB, enhancing their reconstitution. As a result, an increase in signal is observed.
Libraries of SmLux and LgLux were assembled and tested independently to identify variants with lower baseline and higher fold change.

[2] = system: SmLux; experiment: LgLux stability optimization: error-prone PCR LgLux mutants on yeast, protease treatment, SmLux complementation; conditions: Table 20, EP-PCR LgLux mutants on yeast, 50 uM substrate 1c; for Fold change upon SmLux peptide addition: 200 nM SmLux
Procedure: LgLux mutants were generated by error-prone PCR (EP-PCR) and treated with protease and their activity measured as depicted schematically in FIG. 44.
Yeast expressing a library of the LgLux mutants were incubated with proteases and screened to select variants that were stable enough to resist proteolysis. Functional variants were selected by adding 50 uM of substrate 1c and 200 nM of SmLux.
The nucleotide sequence encoding LgLux_4039 was subjected to EP-PCR to identify protease-stable mutants. The sequences (SEQ ID NOs: 2806-2814) and activity of the mutants are summarized below in Table 20.

[3] = system: SmLux; experiment: Computationally generated LgLux variants expressed in E. coli, tested in lysates with SmLux and substrate 1c
Summary of the method: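 Variants expressed in E. coli and screened as lysates, complemented with 20 uM SmLux and given 50 uM substrate 1c; luminescent activity measured.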

[4] = Table 22, 20 uM SmLux, 50 uM substrate 1c

B1: MBIO-5335: LgLux_4039 variant S2C, R11L, V46I, E54D; SEQ ID NO 2797 (protein)
chain: MCEEQIRQNLLRFYEALDSGDAITAASLFDPGVTITLWDGTTFTSIEEFREWFDSQFSTSKDALREISSLEVRGDTVEVTVRLSFTRNGQKHTVDLLQLFKFV
Baseline Signal (Normalized by expression) [1]: 23769.5 | Fold change upon Rap addition [1]: 1.9

B2: SEQ ID NO 2810: LgLux_4039 EP-PCR mutant F43L (protein)
chain: MSEEQIRQNLRRFYEALDSGDAITAASLFDPGVTITLWDGTTLTSVEEFREWFESQFSTSKDALREISSLEVRGDTVEVTVRLSFTRNGQKHTVDLLQLFKFV
Baseline Signal (Normalized by expression) [2]: 327.2 | Fold change upon SmLux peptide addition [2]: 81.7

B3: SEQ ID NO 2814: LgLux_4039 EP-PCR mutant E51V, K61T (protein)
chain: MSEEQIRQNLRRFYEALDSGDAITAASLFDPGVTITLWDGTTFTSVEEFRVWFESQFSTSTDALREISSLEVRGDTVEVTVRLSFTRNGQKHTVDLLQLFKFV
Baseline Signal (Normalized by expression) [2]: 934.2 | Fold change upon SmLux peptide addition [2]: 53.1

B4: MBIO-5337: LgLux_4039 variant R11L, D30N; SEQ ID NO 2799 (protein)
chain: MSEEQIRQNLLRFYEALDSGDAITAASLFNPGVTITLWDGTTFTSVEEFREWFESQFSTSKDALREISSLEVRGDTVEVTVRLSFTRNGQKHTVDLLQLFKFV
Baseline Signal (Normalized by expression) [1]: 14853.7 | Fold change upon Rap addition [1]: 2.1

B5: MBIO-5342: LgLux_4039 variant E54G, S55T, R87S; SEQ ID NO 2802 (protein)
chain: MSEEQIRQNLRRFYEALDSGDAITAASLFDPGVTITLWDGTTFTSVEEFREWFGTQFSTSKDALREISSLEVRGDTVEVTVRLSFTSNGQKHTVDLLQLFKFV
Baseline Signal (Normalized by expression) [1]: 3361.4 | Fold change upon Rap addition [1]: 2

B6: SEQ ID NO 2805: LgLux_4039 variant S19C (protein)
chain: MSEEQIRQNLRRFYEALDCGDAITAASLFDPGVTITLWDGTTFTSVEEFREWFESQFSTSKDALREISSLEVRGDTVEVTVRLSFTRNGQKHTVDLLQLFKFV
Baseline Signal (Normalized by expression) [1]: 3667.6 | Fold change upon Rap addition [1]: 2

B7: SEQ ID NO 2813: LgLux_4039 EP-PCR mutant T34I (protein)
chain: MSEEQIRQNLRRFYEALDSGDAITAASLFDPGVIITLWDGTTFTSVEEFREWFESQFSTSKDALREISSLEVRGDTVEVTVRLSFTRNGQKHTVDLLQLFKFV
Baseline Signal (Normalized by expression) [2]: 241.6 | Fold change upon SmLux peptide addition [2]: 52

B8: SEQ ID NO 2808: LgLux_4039 EP-PCR mutant K101E (protein)
chain: MSEEQIRQNLRRFYEALDSGDAITAASLFDPGVTITLWDGTTFTSVEEFREWFESQFSTSKDALREISSLEVRGDTVEVTVRLSFTRNGQKHTVDLLQLFEFV
Baseline Signal (Normalized by expression) [2]: 228.3 | Fold change upon SmLux peptide addition [2]: 86.8

B9: LgLux_4039: Large Lux fragment of MBIO-4039 (protein)
chain: MSEEQIRQNLRRFYEALDSGDAITAASLFDPGVTITLWDGTTFTSVEEFREWFESQFSTSKDALREISSLEVRGDTVEVTVRLSFTRNGQKHTVDLLQLFKFV
Baseline Signal (Normalized by expression) [1]: 22064.6 | Fold change upon Rap addition [1]: 1.9 | Baseline Signal (Normalized by expression) [2]: 417.8 | Fold change upon SmLux peptide addition [2]: 78.5 | Fold change upon SmLux peptide addition ([3]; 20 uM SmLux, 50 uM substrate 1c): 214.43 | Baseline Signal (Normalized by expression) ([3]; 50 uM substrate 1c, before SmLux peptide addition): 299.2 | Fold change upon SmLux peptide addition [3, 4]: 360.49 | Baseline Signal (Normalized by expression) ([3]; Table 22, 50 uM substrate 1c): 1766.6

B10: MBIO-5336: LgLux_4039 variant R11L; SEQ ID NO 2798 (protein)
chain: MSEEQIRQNLLRFYEALDSGDAITAASLFDPGVTITLWDGTTFTSVEEFREWFESQFSTSKDALREISSLEVRGDTVEVTVRLSFTRNGQKHTVDLLQLFKFV
Baseline Signal (Normalized by expression) [1]: 16379.8 | Fold change upon Rap addition [1]: 2.1

B11: SEQ ID NO 2812: LgLux_4039 EP-PCR mutant L64F (protein)
chain: MSEEQIRQNLRRFYEALDSGDAITAASLFDPGVTITLWDGTTFTSVEEFREWFESQFSTSKDAFREISSLEVRGDTVEVTVRLSFTRNGQKHTVDLLQLFKFV
Baseline Signal (Normalized by expression) [2]: 233.2 | Fold change upon SmLux peptide addition [2]: 61.7

B12: SEQ ID NO 2811: LgLux_4039 EP-PCR mutant N9I, N88D (protein)
chain: MSEEQIRQILRRFYEALDSGDAITAASLFDPGVTITLWDGTTFTSVEEFREWFESQFSTSKDALREISSLEVRGDTVEVTVRLSFTRDGQKHTVDLLQLFKFV
Baseline Signal (Normalized by expression) [2]: 232.7 | Fold change upon SmLux peptide addition [2]: 55.5

B13: MBIO-5340: LgLux_4039 variant S2T, I6L, R11L, E48K; SEQ ID NO 2804 (protein)
chain: MTEEQLRQNLLRFYEALDSGDAITAASLFDPGVTITLWDGTTFTSVEKFREWFESQFSTSKDALREISSLEVRGDTVEVTVRLSFTRNGQKHTVDLLQLFKFV
Baseline Signal (Normalized by expression) [1]: 6666.1 | Fold change upon Rap addition [1]: 2.2

B14: MBIO-5338: LgLux_4039 variant T41A, H92Q; SEQ ID NO 2800 (protein)
chain: MSEEQIRQNLRRFYEALDSGDAITAASLFDPGVTITLWDGATFTSVEEFREWFESQFSTSKDALREISSLEVRGDTVEVTVRLSFTRNGQKQTVDLLQLFKFV
Baseline Signal (Normalized by expression) [1]: 18945.1 | Fold change upon Rap addition [1]: 2.2

B15: SEQ ID NO 2807: LgLux_4039 EP-PCR mutant L99Q (protein)
chain: MSEEQIRQNLRRFYEALDSGDAITAASLFDPGVTITLWDGTTFTSVEEFREWFESQFSTSKDALREISSLEVRGDTVEVTVRLSFTRNGQKHTVDLLQQFKFV
Baseline Signal (Normalized by expression) [2]: 738.4 | Fold change upon SmLux peptide addition [2]: 83.3

B16: MBIO-5339: LgLux_4039 variant R11L, I23V; SEQ ID NO 2801 (protein)
chain: MSEEQIRQNLLRFYEALDSGDAVTAASLFDPGVTITLWDGTTFTTVEEFREWFESQFSTSKDALREISSLEVRGDTVEVTVRLSFTRNGQKHTVDLLQLFKFV
Baseline Signal (Normalized by expression) [1]: 28286 | Fold change upon Rap addition [1]: 1.9

B17: SEQ ID NO 2809: LgLux_4039 EP-PCR mutant N9D, V103I (protein)
chain: MSEEQIRQDLRRFYEALDSGDAITAASLFDPGVTITLWDGTTFTSVEEFREWFESQFSTSKDALREISSLEVRGDTVEVTVRLSFTRNGQKHTVDLLQLFKFI
Baseline Signal (Normalized by expression) [2]: 638.6 | Fold change upon SmLux peptide addition [2]: 170

B18: MBIO-5341: LgLux_4039 variant P31S; SEQ ID NO 2803 (protein)
chain: MSEEQIRQNLRRFYEALDSGDAITAASLFDSGVTITLWDGTTFTSVEEFREWFESQFSTSKDALREISSLEVRGDTVEVTVRLSFTRNGQKHTVDLLQLFKFV
Baseline Signal (Normalized by expression) [1]: 10433.7 | Fold change upon Rap addition [1]: 2.2

B19: SEQ ID NO 2806: LgLux_4039 EP-PCR mutant N9S (protein)
chain: MSEEQIRQSLRRFYEALDSGDAITAASLFDPGVTITLWDGTTFTSVEEFREWFESQFSTSKDALREISSLEVRGDTVEVTVRLSFTRNGQKHTVDLLQLFKFV
Baseline Signal (Normalized by expression) [2]: 973.7 | Fold change upon SmLux peptide addition [2]: 126.7

B20: MBIO-5376: computationally generated LgLux, SEQ ID NO 2791 (protein)
chain: MTPEERIADVRAFYAALASGDLEAAKALFDPGVTITLWDGTTFTSVEEFRAWFEEQFKTSKDALREIESIEVDGDTVRVLVRLSFTRNGQKHTVDLLQLFKFI
Fold change upon SmLux peptide addition [3, 4]: 245.29 | Baseline Signal (Normalized by expression) ([3]; Table 22, 50 uM substrate 1c): 409.4
